Results on five substances are retold here after publication PMC2563026.

Assay [1] concerns the target chimeric receptor bearing feline CD134 CRD1 in the context of human CD134, on cells (feline | human).
The target in assay [2] is CXCR4, endogenous on feline cells (feline (endogenous in MCC)) (UniProt P56498).
For assay [3] the target is unchanged. Kind of assay: flow cytometry on cells; MCC cells stably transduced with fCD134, the CRD1 chimera, human CD134 or vector only were incubated with Fc-SU fusion proteins; bound protein detected with PE-anti-human IgG Fc; 10,000 events. On the technique in general: Flow cytometry measures light scatter and fluorescence of single cells or particles in a stream.

Sequence of UniProt P56498 (P56498 whole entry, the tested form may be a part): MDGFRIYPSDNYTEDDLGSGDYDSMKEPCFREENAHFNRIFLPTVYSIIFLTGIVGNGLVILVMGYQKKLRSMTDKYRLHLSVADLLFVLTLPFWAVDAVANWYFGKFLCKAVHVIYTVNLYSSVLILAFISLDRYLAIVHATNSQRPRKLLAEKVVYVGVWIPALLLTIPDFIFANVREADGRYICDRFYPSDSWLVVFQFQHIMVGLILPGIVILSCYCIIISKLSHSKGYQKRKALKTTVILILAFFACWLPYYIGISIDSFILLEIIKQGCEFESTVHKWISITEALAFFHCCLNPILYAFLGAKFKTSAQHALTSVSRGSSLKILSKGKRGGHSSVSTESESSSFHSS

Regarding “FIV GL8 Env Δ2N double mutant (T271I and N342Y), on HIV(FIV) luciferase pseudotypes (natural protein)”, in assay [1], the infection of MCC-CRD1 cells by HIV(FIV) luciferase pseudotypes, fold reduction stood at 47 fold.

Take “FIV GL8 Env T271I, on HIV(FIV) luciferase pseudotypes (natural protein)”: the infection of MCC-CRD1 cells by HIV(FIV) luciferase pseudotypes, fold reduction in assay [1] is 27 fold.

Substance “FIV GL8 Env, wild type, on HIV(FIV) luciferase pseudotypes (natural protein)” showed an entry of HIV(FIV) pseudotypes into MYA-1 cells with the CXCR4 antagonist AMD3100 at 0.1 μg/ml, fold reduction in assay [2] of 100 fold. In assay [1], the infection of MCC-CRD1 cells by HIV(FIV) luciferase pseudotypes, fold less efficient than on MCC cells expressing CD134 came out at 300 fold.

Regarding “FIV GL8 Env SU-Fc fusion protein, wild type”, the percent binding of Fc-SU (human CD134-expressing MCC cells) in assay [3] was 17.2%.

In turn, “FIV CPG41 Env, wild type, on HIV(FIV) luciferase pseudotypes (natural protein)” returned an entry of HIV(FIV) pseudotypes into MYA-1 cells with the CXCR4 antagonist AMD3100 at 0.1 μg/ml, fold reduction in assay [2] of 5 fold.
